Measured values reported in publication PMC5350145, “Either fadD1 or fadD2, Which Encode acyl-CoA Synthetase, Is Essential for the Survival of Haemophilus parasuis SC096” (Frontiers in Cellular and Infection Microbiology, 2017).

Key:
Test in all cases: DTNB free-thiol (CoA) assay, Hanes-Woolf
FadD1 = target: T1, FadD1 (Glaesserella parasuis, UniProt B8F3K7); type: biochemical; settings: 5 mM ATP, 0.5 mM CoA, 10 mM MgCl2, 0.1% Triton X-100, pH 7.2, 37°C; read-out: Kinetic parameters^a / Km^c
T1 construct: gene lcfA; full length, His-tagged in pET28b (NdeI/HindIII), no tag removal described; E. coli BL21 host; locus tag is that of strain SH0165
T1 sequence (B8F3K7 1-566): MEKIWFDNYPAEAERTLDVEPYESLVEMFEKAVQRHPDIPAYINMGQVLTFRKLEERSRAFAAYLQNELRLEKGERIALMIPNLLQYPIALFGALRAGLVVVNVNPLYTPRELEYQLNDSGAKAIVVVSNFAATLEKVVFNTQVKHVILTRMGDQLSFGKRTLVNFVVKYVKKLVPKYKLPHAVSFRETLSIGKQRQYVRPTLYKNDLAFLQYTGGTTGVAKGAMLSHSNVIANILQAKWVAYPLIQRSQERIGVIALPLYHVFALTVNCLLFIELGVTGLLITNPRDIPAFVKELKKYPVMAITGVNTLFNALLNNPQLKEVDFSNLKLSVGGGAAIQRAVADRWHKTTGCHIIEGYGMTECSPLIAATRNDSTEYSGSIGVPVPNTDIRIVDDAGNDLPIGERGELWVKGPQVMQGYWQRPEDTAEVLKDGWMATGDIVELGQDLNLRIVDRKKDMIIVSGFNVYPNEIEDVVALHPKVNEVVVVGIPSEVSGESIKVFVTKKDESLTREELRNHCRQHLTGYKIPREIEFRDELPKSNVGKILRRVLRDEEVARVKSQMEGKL
Excerpt: (§1) DTNB free-thiol (CoA) assay, Hanes-Woolf on FadD1

[1] = substrate: CCCCCCCCCCCCCC(=O)O; type: biochemical, Glaesserella parasuis; settings: 5 mM ATP, 0.5 mM CoA, 10 mM MgCl2, 0.1% Triton X-100, pH 7.2, 37°C
Excerpt: (§2) DTNB free-thiol (CoA) assay, Hanes-Woolf on FadD2

[2] = substrate: CCCCCCCCCCCCCCCC(=O)O; type: biochemical, Glaesserella parasuis; settings: 5 mM ATP, 0.5 mM CoA, 10 mM MgCl2, 0.1% Triton X-100, pH 7.2, 37°C
Excerpt: as §2

[3] = substrate: CCCCCCCCCCCCCC(=O)O; type: biochemical, Glaesserella parasuis; settings: 5 mM ATP, 0.5 mM CoA, 10 mM MgCl2, 0.1% Triton X-100, pH 7.2, 37°C; remark: listed apart in the source
Excerpt: as §1

[4] = substrate: CCCCCCCCCCCCCCCC(=O)O; type: biochemical, Glaesserella parasuis; settings: 5 mM ATP, 0.5 mM CoA, 10 mM MgCl2, 0.1% Triton X-100, pH 7.2, 37°C; remark: listed apart in the source
Excerpt: as §1

Molecule `CCCCCCCC/C=C\CCCCCCCC(=O)O` [C18:1] has a Km (FadD1) of 15.6 µM.

B1: FadD2 (Glaesserella parasuis SH0165) (protein)
chain: MASLDFHFVNRFRLQAKKWLNRTALRFREQAQWQEMSWQTFQQEIDRFSYALIAQHIDIQDKIGIFANNMPRWTIADFGAMQARAVAVPIYATNTAKQVEYIVNDADIKILFVGDQEQLDQVCQIANNCPQLMKIVAMKANMDLRDLPNACYWEDFLDVVPNEAEFEKRLNSKQLSDLFTLIYTSGTTGEPKGVMLDYANLAHQLNAHDLALNVNEDDVSLSFLPLSHIFERAWVAYVFHRGATNCYLEDTNHVRDALTTLKPTVMCAVPRFYEKIYTAVWDKVEKAPAHRRALFNWAIRVGEKHYQTEQPSQWLRLQYALADKLVLTKLRALLGGRIKMMPCGGAKLEASIGSFFHSIGINIKLGYGMTETTATVSCWQDKGFNPNSIGTLMPNAEVKIGEENEILVRGGMVMRGYYKKPEETAKAFTEDGFLRTGDVGEMDSCGNLFITDRLKELMKTLNGKYIAPQYIEGKIGKDKFIEQIAVIADAKKYVSALIVPCFDSLEEYAKQLNIKYQDRIELIKHSDIIQMFERRIHELQKELPSFEQVKKFTLLPQAFSTAMEEITPTLKLRRKVIMQRYREQIEEMYNERSLT
notes: full length, His-tagged in pET28b (NdeI/HindIII), no tag removal described; E. coli BL21 host; locus tag is that of strain SH0165
B1 was tested, and the Km [1] was 173.40 µM, the kcat [1] was 0.002 s⁻¹ and the kcat/Km [1] was 10 M⁻¹ s⁻¹. It also gave a Km [2] of 128.30 µM, a kcat [2] of 0.020 s⁻¹ and a kcat/Km [2] of 160 M⁻¹ s⁻¹.

B2: FadD1 (Glaesserella parasuis SH0165) (protein)
chain: MEKIWFDNYPAEAERTLDVEPYESLVEMFEKAVQRHPDIPAYINMGQVLTFRKLEERSRAFAAYLQNELRLEKGERIALMIPNLLQYPIALFGALRAGLVVVNVNPLYTPRELEYQLNDSGAKAIVVVSNFAATLEKVVFNTQVKHVILTRMGDQLSFGKRTLVNFVVKYVKKLVPKYKLPHAVSFRETLSIGKQRQYVRPTLYKNDLAFLQYTGGTTGVAKGAMLSHSNVIANILQAKWVAYPLIQRSQERIGVIALPLYHVFALTVNCLLFIELGVTGLLITNPRDIPAFVKELKKYPVMAITGVNTLFNALLNNPQLKEVDFSNLKLSVGGGAAIQRAVADRWHKTTGCHIIEGYGMTECSPLIAATRNDSTEYSGSIGVPVPNTDIRIVDDAGNDLPIGERGELWVKGPQVMQGYWQRPEDTAEVLKDGWMATGDIVELGQDLNLRIVDRKKDMIIVSGFNVYPNEIEDVVALHPKVNEVVVVGIPSEVSGESIKVFVTKKDESLTREELRNHCRQHLTGYKIPREIEFRDELPKSNVGKILRRVLRDEEVARVKSQMEGKL
notes: as for B1
With B2 the Km [3] was 41.48 µM, the kcat [3] was 0.083 s⁻¹ and the kcat/Km [3] was 2010 M⁻¹ s⁻¹. It also gave a Km [4] of 39.90 µM, a kcat [4] of 0.098 s⁻¹ and a kcat/Km [4] of 2450 M⁻¹ s⁻¹.
